In publication PMC6224480, “Insights into Kinesin-1 Activation from the Crystal Structure of KLC2 Bound to JIP3” (Structure(London, England:1993), 2018):
*: point of attachment. FITC = O=C1OC2(c3ccc(O)cc3Oc3cc(O)ccc32)c2ccc(NC(=S)*)cc21

Key:
Assay in all cases: ITC; FITC-CSTN-WD2 peptide as titrant (380 uM) into wild-type or mutant KLC2^TPR-myc (44-50 uM) in the cell; 25 C; 0.1 M NaCl, 25 mM HEPES, 1 mM TCEP, pH 7.5; 2-3 experiments globally fitted with the model A + B -> AB; apparent stoichiometry Napp
[1] = target: KLC2^TPR-myc (kinesin light chain 2 TPR domain, wild type, C-terminal myc tag) (mouse) (UniProt O88448)
[2] = target: KLC2^TPR-myc Thr^200Asp mutant (mouse) (UniProt O88448)
[3] = target: KLC2^TPR-myc Tyr^208Ala mutant (mouse) (UniProt O88448)

Ka [1]: 820000 M⁻¹
stoichiometry N [1]: 0.67
Ka [2]: 845000 M⁻¹
stoichiometry N [2]: 0.71
Ka [3]: 541000 M⁻¹
stoichiometry N [3]: 0.67
Binder: {FITC}-TRQLEWDDSTL-OH [FITC-labeled CSTN(WD2) peptide (FITC-…-COOH)]
